{"source": "patent US20240043528A1", "about": "“NANOBODY-OGA FUSIONS AND USES THEREOF” (President and Fellows of Harvard College, priority 2020, published 2024)", "molecules": {"B1": {"name": "OGA(cat): catalytic domain of OGA alone, residues 1-366, myc tag (protein, UniProt O60502 1-366, looked up, fragment)", "chain": "MVQKESQATLEERESELSSNPAASAGASLEPPAAPAPGEDNPAGAGGAAVAGAAGGARRFLCGVVEGFYGRPWVMEQRKELFRRLQKWELNTYLYAPKDDYKHRMFWREMYSVEEAEQLMTLISAAREYEIEFIYAISPGLDITFSNPKEVSTLKRKLDQVSQFGCRSFALLFDDIDHNMCAADKEVFSSFAHAQVSITNEIYQYLGEPETFLFCPTEYCGTFCYPNVSQSPYLRTVGEKLLPGIEVLWTGPKVVSKEIPVESIEEVSKIIKRAPVIWDNIHANDYDQKRLFLGPYKGRSTELIPRLKGVLTNPNCEFEANYVAIHTLATWYKSNMNGVRKDVVMTDSEDSTVSIQIKLENEGSDE", "modifications": "catalytic domain myc tag", "notes": "catalytic domain of OGA alone, residues 1-366, myc tag"}, "B2": {"name": "N2: myc-OGA(1-400) N fragment (SEQ ID NO: 4) (protein)", "chain": "MEQKLISEEDLAIAMVQKESQATLEERESELSSNPAASAGASLEPPAAPAPGEDNPAGAGGAAVAGAAGGARRFLCGVVEGFYGRPWVMEQRKELFRRLQKWELNTYLYAPKDDYKHRMFWREMYSVEEAEQLMTLISAAREYEIEFIYAISPGLDITFSNPKEVSTLKRKLDQVSQFGCRSFALLFDDIDHNMCAADKEVFSSFAHAQVSITNEIYQYLGEPETFLFCPTEYCGTFCYPNVSQSPYLRTVGEKLLPGIEVLWTGPKVVSKEIPVESIEEVSKIIKRAPVIWDNIHANDYDQKRLFLGPYKGRSTELIPRLKGVLTNPNCEFEANYVAIHTLATWYKSNMNGVRKDVVMTDSEDSTVSIQIKLENEGSDEDIETDVLYSPQMALKLALTEWLQEFGVPHQYSSR", "modifications": "myc tag"}, "B3": {"name": "myc-OGA(1-413) (protein)", "chain": "MVQKESQATLEERESELSSNPAASAGASLEPPAAPAPGEDNPAGAGGAAVAGAAGGARRFLCGVVEGFYGRPWVMEQRKELFRRLQKWELNTYLYAPKDDYKHRMFWREMYSVEEAEQLMTLISAAREYEIEFIYAISPGLDITFSNPKEVSTLKRKLDQVSQFGCRSFALLFDDIDHNMCAADKEVFSSFAHAQVSITNEIYQYLGEPETFLFCPTEYCGTFCYPNVSQSPYLRTVGEKLLPGIEVLWTGPKVVSKEIPVESIEEVSKIIKRAPVIWDNIHANDYDQKRLFLGPYKGRSTELIPRLKGVLTNPNCEFEANYVAIHTLATWYKSNMNGVRKDVVMTDSEDSTVSIQIKLENEGSDEDIETDVLYSPQMALKLALTEWLQEFGVPHQYSSRQVAHSGAKASVVD"}, "B4": {"name": "HA-OGA(554-706) (enzyme, human, UniProt O60502 554-706, looked up)", "chain": "TLEDLQLLADLFYLPYEHGPKGAQMLREFQWLRANSSVVSVNCKGKDSEKIEEWRSRAAKFEEMCGLVMGMFTRLSNCANRTILYDMYSYVWDIKSIMSMVKSFVQWLGCRSHSSAQFLIGDQEPWAFRGGLAGEFQRLLPIDGANDLFFQPP", "notes": "range 554-706; the legend prints C4; also called C4; not shown: N-terminal HA tag"}}, "key": {"GFP-Nup62": {"tested_on": "GFP-Nup62", "assay": "Deglycosylation of GFP-Nup62 co-expressed with OGA constructs (anti-EPEA enrichment, RL2 immunoblot)", "type": "cell-based, human", "settings": "for deglycosidase activity on GFP-Nup62 of N fragment: N fragment paired with C1 (aa 414-916)", "experimental": "HEK 293T cells were cultured in Dulbecco's Modified Eagle Medium (DMEM, Cat #11995073) supplemented with penicillin (50 μg/mL) and streptomycin (50 μg/mL) along with 10% (v/v) FBS. Transfections of all plasmids in this study were performed using TransIT-PRO® (Mirus Bio, Cat #MIR 5740) according to the manufacturer's instructions.\nGlycoproteins Nup62, Sp1, JunB, c-Jun were subcloned into pcDNA3.1 vector with a GFP and a Flag-tag or a BC2 tag in the N-terminus and an EPEA tag in the C terminus respectively, unless otherwise noted. For all split OGA constructs with or without the fusion of nanobody GFP, N fragments were tagged with myc tag and C fragments were tagged with HA tag respectively. Human SP1 cDNA ORF plasmid (Cat #HG12024-G), human c-Fos cDNA ORF plasmid, and human OGT cDNA ORF cloned with a C-terminal His tag (Cat #HG11279-M) were purchased from Sino Biological. For subcloning, PCR fragments were amplified using Q5 High-Fidelity 2× Master Mix (New England BioLabs, Cat #M0492S). The vectors were double-digested and ligated to gel-purified PCR products by T4 ligation using T4 DNA ligase (New England BioLabs, Cat #M0202S) or by Gibson assembly using Gibson Assembly Master mix (New England BioLabs, Cat #E2611L). c-Fos was subcloned into a pcDNA3.1 vector with a 14-residue Ubc tag (amino acids: QADQEAKELARQIA (SEQ ID NO: 11)), Flag tag, and EPEA tag at the C terminus. All nanobody DNA fragments were synthesized by IDT.\nAfter 36-48 h of transfection, cells were harvested and washed with PBS once. Cells were lysed with M-PER lysis buffer containing 1× protease inhibitor cocktail and 10 μM Thiamet-G unless otherwise noted. Protein concentrations were determined by the BCA assay kit (G-Biosciences, 786) on a multi-mode microplate reader FilterMax F3 (Molecular Devices LLC, Sunnyvale, CA).\nFor immunoprecipitation of proteins with the C-terminal EPEA tag, cell lysates with equal amounts of protein were diluted with PBS and incubated with C-tag affinity matrix (Thermo Scientific) for 1 h at room temperature, with end-to-end rotation, following the manufacturer's instructions. After washing three times with PBS buffer, the enriched proteins were eluted with SDS sample buffer and subjected to SDS-PAGE.\nFor immunoblotting analysis, proteins were transferred to a nitrocellulose membrane using iBlot (Thermo Scientific). Membranes were blocked with Tris buffered saline containing 0.1% Tween-20 and 5% BSA and incubated with the primary antibodies (1:1000 dilution) and the secondary antibodies (1:10,000 dilution) sequentially. Immunoblot images were captured by Azure Imager C600. Analysis of immunoblots was conducted with Fiji ImageJ. All IR fluorescence western blot images are converted into grayscale images by Fiji ImageJ. The unsaturated exposure of immunoblot images was used for quantification with the appropriate loading controls as standards. Statistical analysis of the data was performed with Prism 8, using data from at least three independent experiments."}, "HA-OGA(414-916), O60502": {"biological_target": "T1, HA-OGA(414-916), O60502", "T1 chain": "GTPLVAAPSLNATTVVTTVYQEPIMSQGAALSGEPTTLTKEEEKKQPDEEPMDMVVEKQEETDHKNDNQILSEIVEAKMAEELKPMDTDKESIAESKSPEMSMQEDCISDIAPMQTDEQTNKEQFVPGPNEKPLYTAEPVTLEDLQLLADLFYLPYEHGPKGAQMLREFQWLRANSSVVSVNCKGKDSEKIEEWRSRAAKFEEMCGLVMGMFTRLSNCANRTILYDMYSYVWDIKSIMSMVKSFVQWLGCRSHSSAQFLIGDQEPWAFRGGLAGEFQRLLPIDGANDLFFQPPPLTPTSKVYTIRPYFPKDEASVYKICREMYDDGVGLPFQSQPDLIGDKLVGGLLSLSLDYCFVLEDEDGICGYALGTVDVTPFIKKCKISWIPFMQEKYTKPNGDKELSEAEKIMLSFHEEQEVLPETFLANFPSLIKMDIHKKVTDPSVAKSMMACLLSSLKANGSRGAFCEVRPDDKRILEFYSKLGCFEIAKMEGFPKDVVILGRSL"}, "myc-OGA(1-400)": {"biological_target": "T2, myc-OGA(1-400) (human, UniProt O60502 1-400)", "T2 construct": "also called N2; N fragment", "T2 sequence": "B2 chain", "assay": "co-immunoprecipitation (anti-c-Myc / anti-HA magnetic beads) from HEK 293T lysates, immunoblot", "experimental": "The asterisk indicates IgG heavy chain from anti-c-Myc magnetic beads. […] In FIG. 9A and FIG. 9C, activities of fragments alone or pairs with/without nGFP were evaluated on GFP-Nup62, which was enriched by beads against EPEA tag and blotted with RL2 antibody to reveal O-GlcNAc modification level. D174N is a catalytically impaired mutation on OGA. Anti-myc and anti-HA blots detect expression of full-length (fl-OGA) or N-terminal fragment, and C-terminal fragment, respectively. WCL, whole cell lysates. The data in FIGS. 9A-9C are representative of at least two biological replicates.\nFor immunoprecipitation of proteins with anti-HA (Pierce, 88836) or anti-c-Myc (Pierce, 88842) magnetic beads, cell lysates with equal amounts of protein were diluted with 1×TBS-T buffer (25 mM Tris HCl pH 7.4, 150 mM NaCl, 0.05% Tween-20) and incubated with pre-washed magnetic beads at room temperature for 30 min with mixing, following the manufacturer's instructions. Anti-HA magnetic beads were washed three times with TBS-T buffer and once with ultrapure water. Anti-c-Myc magnetic beads were washed three times with 5×TBS-T buffer and once with ultrapure water. The enriched proteins were eluted with SDS sample buffer and subjected to SDS-PAGE."}}, "note": "“Also recorded” adds a separate entry of the source."}
{"molecule": "B1", "values": [{"measurement": "deglycosidase activity on GFP-Nup62 of N fragment", "setting": "GFP-Nup62; HEK 293T cells", "result": "no activity was seen on GFP-Nup62"}, {"measurement": "deglycosidase activity / O-GlcNAc modification level on GFP-Nup62", "setting": "GFP-Nup62; co-expressed in HEK 293T cells", "result": "inactive"}, {"measurement": "deglycosidase activity on GFP-Nup62 after fusion of nGFP", "setting": "GFP-Nup62; nGFP fused to a fragment, HEK 293T cells, listed as N3", "result": "could not be recovered; also recorded: unable to reconstitute OGA's activity with any C-fragments shown in this study even in the presence of nGFP"}]}
{"molecule": "B2", "values": [{"measurement": "deglycosidase activity on GFP-Nup62 of N fragment", "setting": "GFP-Nup62; HEK 293T cells", "result": "possessed deglycosylation capability when paired with C1"}]}
{"molecule": "B3", "values": [{"measurement": "deglycosidase activity on GFP-Nup62 (O-GlcNAc RL2 immunoblot)", "setting": "HA-OGA(414-916), O60502", "result": "The N- and C-terminal fragments can associate to reconstitute OGA enzymatic activity when co-expressed simultaneously in living cells"}]}
{"molecule": "B4", "values": [{"measurement": "binding result", "setting": "myc-OGA(1-400)", "result": "no binding"}]}
